The values that follow come from article PMC6895045, “Upregulation of tropomyosin alpha-4 chain in patients’ saliva with oral squamous cell carcinoma as demonstrated by Phage display” (Scientific Reports, 2019).

The target of this experiment is T1, tropomyosin alpha-4 chain (Homo sapiens, UniProt P67936).
T1 construct: Tropomyosin alpha-4 chain, human, UniProtKB P67936; theoretical mass/pI printed as 28,522 kDa/4.67); Denatured protein on a nitrocellulose membrane; identity rests on MALDI-TOF MS of the excised spot; also called TPM4; TMP4; source: endogenous, pooled protein extracts from OSCC tissues, resolved by 2D gel electrophoresis
T1 sequence (P67936 whole entry): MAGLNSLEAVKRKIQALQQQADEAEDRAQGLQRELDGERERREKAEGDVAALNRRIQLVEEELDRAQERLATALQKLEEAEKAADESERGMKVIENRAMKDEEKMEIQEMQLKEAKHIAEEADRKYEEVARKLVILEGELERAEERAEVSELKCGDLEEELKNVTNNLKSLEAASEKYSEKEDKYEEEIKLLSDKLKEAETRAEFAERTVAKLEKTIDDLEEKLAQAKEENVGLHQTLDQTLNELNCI
Kind of experiment: far-Western, overlay or dot blot; Western blot of a 2D gel (pH 4-7) of OSCC tissue protein extracts on nitrocellulose, probed with scFv-D09, detected with HRP-conjugated rat anti-HA; the spot was excised from the stained gel and identified by MALDI-TOF MS. Particulars: one partner purified.

B1: scFv-D09 (scFv, V domains shown)
VH: QVQLQESGPGLVKPSQTLSLTCAVSGGSISSSNWWSWVRQPPGKGLEWIGEIYHSGSTNYNPSLKSRVTISVDKSKNQFSLKLSSVTAADTAVYYCARQSFPGRAFDIWGQGTMVTVSS
VL: EIVMTQSPATLSVSPGERATLSCRASQSVSSNLAWYQQKPGQAPRLLIYGASTRATGIPARFSGSGSGTEFTLTISSLQSEDFAVYYCQHYNNWLWTFGQGTKVEIK
notes: also called scFv D09 antibody; scFv-D09 clone
For B1, the binding result is reported as “binds”.
